# According to publication PMC4066749, “A sequence-based approach for prediction of CsrA/RsmA targets in bacteria with experimental validation in Pseudomonas aeruginosa” (Nucleic Acids Research, 2014):
# B1: RsmA-R44A mutant (natural protein)
# chain: MLILTRRVGETLMVGDDVTVTVLGVKGNQVRIGVNAPKEVAVHAEEIYQRIQKEKDQEPNH
# notes: RsmA of Pseudomonas aeruginosa with R44A; also called the mutant
# B2: RsmA (regulator of secondary metabolism), His-tagged (natural protein)
# chain: not shown
# notes: also called CsrA homolog; wild-type RsmA protein; source: purification from E. coli
# Biological target: the molecule itself
# Assay: SEC; Superdex 75 HR 10/30 analytical column calibrated with a Gel Filtration LMW Calibration Kit; absorbance at 280 nm; apparent molecular weights from elution volumes
Protein,binding result,stoichiometry N
B1,binds,–
B2,–,2
